Source: patent US20100175139A1, “SOMATO[…]” (priority 2007, published 2010)

Assays:
Type in all cases: cell-based
[1] = tested on: ARE responsive element with xenopus Fast-1 transactivator (Smad2 specific); assay: ARE/Fast-1 responsive element luciferase reporter in NIH-3T3 cells; settings: TGF-β3 over-expression
Excerpt: (§1) NIH-3T3 cells were transfected with plasmids containing TGF-β responsive elements driving luciferase expression. These cells were then transduced with a retroviral vector expressing TGF-β3. The SBE4 responsive element is specific to TGF-β activation via smad2/3 mediated transcriptional activation. This Smad activation can be further delineated to Smad2 specific transcriptional activation using the ARE responsive element in conjunction with the xenopus Fast-1 transactivator (ARE alone is only Smad2/3 specific). The BMP-specific responsive element activates through Smad1/5/8 activation and should not be responsive to TGF-β3 activity. […] The experiment was conducted as follows:
(§2) NIH-3T3 cells pre-plated at 1×10^6 cells/well and transfected with 10 μg of reporter plasmid by standard Calcium Phosphate precipitation. After 48 hours cells were transduced with either rKat.TGF-β3 or a control rKat.cmvGFP retrovirus. […] After 48 hours luciferase expression was measured in cell lysates. […] Relative luciferase activity was expressed in arbitrary units with respect to total protein measured by standard Bradford assay as by manufacturer's instructions (BioRad, Herts, UK).

[2] = tested on: SBE4 responsive element (smad2/3 mediated transcriptional activation); assay: SBE4 responsive element luciferase reporter in NIH-3T3 cells; settings: transgenic TGF-β3 over-expression vs control GFP retrovirus, 48 hours
Excerpt: as §1, §2

[3] = tested on: BMP responsive element BRE (Smad1/5/8); assay: BMP responsive element BRE luciferase reporter in NIH-3T3 cells (negative control); settings: TGF-β3 over-expression
Excerpt: as §1, §2

[4] = tested on: ARE responsive element (Smad2/3 specific); assay: ARE responsive element luciferase reporter in NIH-3T3 cells; settings: TGF-β3 over-expression
Excerpt: as §1, §2

[5] = tested on: MDF-CAGA(12)-Luc cells (Smad2/3 specific transcriptional activation); assay: CAGA(12)-Luc reporter in primary murine dermal fibroblasts; settings: conditioned medium from TGF-β3 over expressing cells vs GFP control
Procedure: A cell line transgenic for a synthetic TGF-β responsive element driving the firefly luciferase gene was generated from primary mouse dermal fibroblasts. The CAGA(12) Smad Binding Element (SBE) was placed upstream of a minimal promoter and will respond to Smad2/3 specific transcriptional activation. Primary murine dermal fibroblasts (MDF) were transduced with a lentiviral vector containing the CAGA(12)-Luc element. These cells were then incubated in conditioned medium from MDFs transduced with a lentivector expressing either TGF-β3 or GFP. The experiment was carried out as follows:
Murine dermal fibroblasts (MDF) were isolated as previously described by DiPersio et al. (DiPersio, C. M., S. Shah, and R. O. Hynes. 1995. alpha 3A beta 1 integrin localizes to focal contacts in response to diverse extracellular matrix proteins. J Cell Sci 108 (Pt 6):2321-36) and expanded to ˜60% confluence and transduced with a lentivector expressing a luciferase reporter gene under the control of either a smad 2/3-specific CAGA(12) promoter. Lentiviral preps were generated as described in Example 1. […] Relative luciferase activity was expressed in arbitrary units with respect to total protein measured by standard Bradford assay as by manufacturer's instructions (BioRad, Herts, UK).

[6] = tested on: Smad7 promoter; assay: Smad7 promoter luciferase reporter in NIH-3T3 cells; settings: TGF-β3 over-expression
Excerpt: as §1, §2

[7] = tested on: 293T cells transduced with Lenti/CAGA(12)-Luc; assay: Lenti/CAGA(12)-Luc reporter in 293T cells with or without human αvβ3 integrins; settings: conditioned medium from cells over-expressing TGF-β3
Excerpt: Human embryonic kidney 293T cells stably expressing the human αvβ3 integrins and control 293T cells were transduced with the Lenti/CAGA(12)-Luc vector to generate two transgenic lines. Again, these cells were subjected to conditioned medium from cells either over-expressing TGF-β3 or control cells. In more detail:
Human 293T cells stably transfected with αv and β3 integrin (293Tab) along with 293T controls were a kind gift from Dr. John Olsen, UNC, USA. 293T cells and 293Tabs were transduced with Lenti-CAGA(12)-Luc and human DFs were tranduced with lentivirus either expressing human TGF-β3iresGFP, mutant TGF-β3iresGFP or a GFP control. Cells were cultured for a further 48 hours prior to trypsinisation and mixing of 293 cells and transduced DFs in a 1:1 ratio. Cells were incubated for a further 24 hours in serum containing medium then incubated for 48 hours in serum depleted medium supplemented with ITS+1 (Sigma-Aldrich). Cells were subsequently either FACS analysed, to assess the ratio of 293T cells to DFs, or lysed for the purpose of quantifying the luciferase expression.

B1: TGF-β3: TGF-β3 over-expressed from a retroviral/lentiviral vector; cells exposed by transduction or conditioned medium (protein, UniProt P10600 301-412, looked up)
Transforming growth factor …: ALDTNYCFRNLEENCCVRPLYIDFRQDLGWKWVHEPKGYYANFCSGPCPYLRSADTTHSTVLGLYNTLNPEASASPCCVPQDLEPLTILYYVGRTPKVEQLSNMVVKSCKCS
- luciferase response of ARE/Fast-1 element over controls [1]: significant responses over controls
- upregulation of SBE4 element over controls (luciferase) [2]: ~1000 fold
- luciferase response of BRE element over controls [3]: did not show a significant response over controls
- luciferase response of ARE element over controls [4]: significant responses over controls
- luciferase response compared to control [5]: significant luciferase response
- luciferase response of Smad7 promoter over controls [6]: significant responses over controls
- luciferase output in αvβ3 expressing cell lines compared to control 293T cells [7]: significantly enhanced
